The values that follow are results of earlier work, collected in PMC11596140.

This data set addresses Cdc4 (Saccharomyces cerevisiae) (UniProt P07834). Briefly: intrinsic Trp fluorescence.
Sequence of UniProt P07834 (P07834 whole entry): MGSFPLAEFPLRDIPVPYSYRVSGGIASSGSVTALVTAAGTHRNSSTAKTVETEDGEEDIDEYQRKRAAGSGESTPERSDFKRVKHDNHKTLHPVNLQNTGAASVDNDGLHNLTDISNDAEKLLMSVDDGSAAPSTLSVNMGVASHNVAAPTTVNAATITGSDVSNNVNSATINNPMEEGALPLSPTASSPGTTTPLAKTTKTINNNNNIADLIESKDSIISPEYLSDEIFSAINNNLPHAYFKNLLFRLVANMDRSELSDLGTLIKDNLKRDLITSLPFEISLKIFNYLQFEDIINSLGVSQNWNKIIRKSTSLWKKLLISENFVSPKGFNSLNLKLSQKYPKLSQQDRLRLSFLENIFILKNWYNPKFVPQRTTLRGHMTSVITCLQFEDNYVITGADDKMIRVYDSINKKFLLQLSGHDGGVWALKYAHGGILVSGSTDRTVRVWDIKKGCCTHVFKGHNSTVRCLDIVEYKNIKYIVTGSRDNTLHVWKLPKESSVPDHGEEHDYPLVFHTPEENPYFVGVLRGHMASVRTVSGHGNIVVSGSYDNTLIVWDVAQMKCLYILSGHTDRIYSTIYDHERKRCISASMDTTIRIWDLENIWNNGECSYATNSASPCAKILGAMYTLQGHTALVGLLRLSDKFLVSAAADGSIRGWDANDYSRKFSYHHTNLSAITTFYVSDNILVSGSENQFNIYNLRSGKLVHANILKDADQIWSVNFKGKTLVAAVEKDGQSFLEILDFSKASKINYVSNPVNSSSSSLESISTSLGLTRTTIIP

The Kd is the concentration at which binding is half-saturated. As for Sic1 (from UniProt P38634), the Kd is 600 nM.
